In the domain aggregation screens of Martell et al. (2025):

Test: soluble fraction after stress (log2 fold change); higher = more stays soluble; pooled small domains, quantitative proteomics
Conditions: stress: 50 degC
Summary of the method: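 Custom libraries of small protein domains were pooled and measured in a high-throughput format, with quantitative proteomics as the read-out. Each library was stressed at 50°C. The value is the log2 fold change in the amount of each protein that stays soluble after stress, used as a measure of aggregation propensity; higher values mean more of the protein stays soluble.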

Row | Sequence | soluble fraction (log2)
1 | HMGFVTVTEVDTTADLKLARVYVSVLGPEEQWAKSFTALESARGFVWNWLRKHLDLRVTPQLAF | -0.984
2 | HMVEDIVLTDAQIEFVKQQAKNGLSAFQISEMIWPEMSVKRFSKQHVAVLDFLREYEPAYVHDSE | 0.00709
3 | HMPKNEHETKAIGNQTGGRVFLFLNTDNINRDYNMYISKQVKFVREISQEYYGKVAVFEDLYGNLWDLIE | 0.149
4 | HMVTIYQRIMLVLEDKQVSVNALSKLVDMSQTTLNTQLKGERTLSANVVAKVLVAYPDVSAEWLMRGVGTM | 0.362
5 | HMRYLHTMIRVSDLEESLNFFKLLDIHEVSRKENEQARFTLVFLSATGDEKLVENAKSPLIELTFN | -0.0584
6 | HMVGEPEPIRYSRFLDEMKSGKLDSVVIQGDTILGVRKDKSQFKTVNPETDYSALIGALDKAGVGIEGRA | 0.146
7 | HMQISDTTELSTLITKVLSEQSDALVDFKNPKKQKQVIGYLTGQVLRASQGKANPGLVRSLLEEQLSALDS | 0.124
8 | HMNDLDSLWDIWENLNERGIGDKSEEGQELRDAIREFIDTNELNVRVTRNKTNEDLLTDIEDALEVAKNS | -0.33
9 | HMYLPGERMRIKITALGSNPKQGVGYLPDGMMVVVDEAATLVGRFVEIEFVKFLQTNSGRMMFAKVAT | -0.224
10 | HMTESIKRDEAIRLNNGRIYTLDAAKIGTNEYEVMLFNPRTGEEIDSAKTSTEADAILQFDRLRRMYHR | 0.1
11 | HMRVDDITDTILNVLKEQGGFISVTDKSSPETINKLFGVSKKTYKKAIGAIYRKKLIIIEDDGIRLNS | -1.84
12 | HMHLTRYQYKVETEQEAVGLKELSSVHDLQIKENEATFQADSDAIDEILKTLLLYGVKKLEATPPTLED | -0.0366
13 | HMVVLPPTEDAPEWAQVFDRLGRPESADGYKLPVPEGADPAFAKLASAKMHELGLSAKQGAALAAWWNEQA | 0.108
14 | HMEISLEAKMAEVREQVRGLAGINFRTLLEMQASRSNIIVTFLAILELMKIGAIQIRQEEIFGEIIIDSRD | -0.222
15 | HMKNLDILTPKEIEVLNLVAKGYSNSKISKELDIAEVTVKKHIGSMFQKLDVKDRLSLALIL | -0.118
16 | HMNVDSLVGSEARVTAEIDNRKETGTAMVNGQEWTARAESDEEIYPVGTIVEIRKIQGVKLIVSTH | -0.162
17 | HMNNIIYLIANKLDVGKRLDQFITIRTEFSRQRVINLIEDGYVKLNNKIINLKKYKIKGDEKIEITIPEIR | -0.542
18 | HMLKFPIGTHVGKKKPSANLSLPNKHGVVIGHGERRNAKGAIMRFYIVETTHSSRPEEWAPGITYPL | -2.5
19 | HMFPDLTEDEQLIVDVLQRTGDLQINSLIVEANIPVNKMSEILFELEMKGVIRTLAGGVYQLL | -1.46
20 | HMAASGTVNSGGDPLRVRADPNTSSQILTKLSDGTQVEVLEQAENGWYKIAHEGISGFVSGEYLVVH | 0.133
21 | HMQAMDYEGFKKEILKMSDIDLSLYKEKQMKRRIDSLIRKNGYEHYEDYVQALKQDSGLYNEFINYLTI | 0.439
22 | HMQLTPAQHAILAHALEHSDGKIVWFPDNIKGGARKKVLDGLLNRALITTDGTDWFVAAEGYDAMGR | -0.227
23 | HMLPTVSITGHIFIRSGSPLNRIFVGEKIYHVGDHIDRDWVIESIGIDTLTIRSGTLSTQLPL | -2.87
24 | HMTYKPAADFKPSDTSSLKEGMKVEHPKFGFGTVMKMEEVGTERKARINFADFGEKTLLLSFAKLKIHEN | 0.0858
25 | HMTMNYYDILSIKRDATLEEIQKAYKEKSFQFHPDFNKGISDDSMFRIIKEAYETLSDTEKRNQYDASLNK | 0.232
26 | HMRDYDFGNLLYKLRIESGYTQKDIADMLGVTDKAVSKWENGIAKPTTNNIKLLSTIYNVSVEELLNG | -0.254
27 | HMDKPIFTLRENEVLYWASMGKTYAEIATIVGISVRTVKFHMGNVVSKLGVSNARQAIRLGVELDLITPMQ | -2
28 | HMGKPAGLIRELGNHPEDEKPVTLNNGRFGPYVKHGKVMASLTKADSPDDITFDRAIELIAIKAEKMAAKG | 0.184

Row | Sequence | soluble fraction (log2)
29 | HMTPQDYEYLRKLLKDQSGLDLSVDKQYLLESRLVPLSRKAGLAGIPELVQKMKAGSASLTAQVVEAMTT | 0.00429
30 | HMSNHYETLGVEQTASVDEIKKAYRRLSLQYHPDRNTTSDAVGKFQKINDAHEILSDKQSRTEYDMQLK | 0.214
31 | HMSSLEQVYPNPVSSILKLNSFIKNYKILNATGHEVLKGSGNTINVGKLPSGSYFLITSENYSIKFIK | -1.24
32 | HMAAVAPPVLERIASDLATRFAGTLSPETVDRYVRESYHLLAERAGITRYLPSLTARFAGDRLDA | 0.0481
33 | HMDKAGWLPARVRLADYPALKQLAWQVQGVDELTPREALGIYERNWRHLDEAALLPRERNLIDALRLAFG | -0.207
34 | HMVPPELEFLQSLMKIEDISELTAAIENNRDAVTDDFKEMLETVIENISGAPDTDPKLLERLKTIRTVLA | 0.0197
35 | HMRSQLALVVRTGESQRLDNFLVNNLAWKSRNRLQGLIREGLVTVNGEKTKASRRVHLDDLVEIHL | -1.25
36 | HMEERDMKGSISDLVERYADQLTDEQLEEIVLGIKNGLLEEDVKSYFFLPAEDMRRIRTALEQVR | 0.00866
37 | HMKKYIEIYNYYKQLIESEQLKSGDKMPSVRKATKIFNVSKTTVQNAYFDLQADGYIIAAPKSGYYVTEM | -0.295
38 | HMHQALLEQSAEHAQQVKAYELLLTAERALDEENTEAFLSAMKSLKPLAENLDAKGKALYQELLPFVTEA | -0.0088
39 | HMDAGLAEIIRSFEDNLGGFPPAAREDLLGWREIFTDDLILLAIKKAALAGVRKWSYVNGILKVWKNEGVR | -0.742
40 | HMLINFPNKLKRLRLANNLTQQELANILETTKQAVSSYESGKSTPSLNSLIKLSEHFNISLDSLVFD | 0.183
41 | HMREVVLNRIGSVAVQRATTRTWEEWVVTLDAEGMRGKEHRDVVGHLLRAHELTSWWAQMVSVGYEQSRGQ | -0.166
42 | HMKSIFIRADELAAELDVSKALAYKMINQWNEELKAKGYTTVGGRVSRQYYYEKIYGAENVFDF | -2.37
43 | HMVVSDSAEIDKIVQDVIAANPKAIEDFKSGKTNVTGWLMGQVMKLSHGKANPKQATEILNKYLSK | 0.354
44 | HMVPFISVTPTSLSFAKGGESKTVDIEASGAFSVGKVPTGFNLEVVNGRITITADANTGAARNGSVEFILA | -0.0614
45 | HMVYVPTKAEVSQQFQDASKARFDERYAIVELADGRRTMAPLAFLTKADHAWLKQLASTSPLPKGK | 0.0196
46 | HMTVGEKIQYYRKKIGLSQEELGQKMLLSRQTISLWEMDKTLPTVDNLLRLKEIFSVSIDELLSENEPK | 0.013
47 | HMIDMQIDTARFGTLGVDDDKIITFPKGLPGFEDERRFFLMDHSGSSKIKWLHSADNPGLALV | -0.0658
48 | HMQYSIQVNKLLKAMREDVWYTANEILDLLKLKSKETLRKNYLDPAINNKLIILELPDKPTSRNQRYKI | -1.66
49 | HMSSDDEAFKRELVGLIPHLRAFARTLTGDPTAADDLAQDAMMKAWDARASYQMGTNMKAWTFMILRNQFY | -2.22
50 | HMPHSTTDFSVSPDERQIVYSTNLQGRYDLWALDHNQGYPYPLTKKGQMSFFIKHLPGSQMILTGFD | 0.00171
51 | HMEAQAHYDAIYKAHPNADSIAQSAEFKAWVDAQPSVVRNAYWQLFDPKEGGTAEQIVEVFDAFVKSS | -0.151
52 | HMGSDAFDISKLNLVGKTKESAESLLKENGFSVDTKEEASDTAAKGTVISYSPTKPKNGERVTLTVSSGK | 0.337
53 | HMKHTVSVDRLQPGVFVSLGGLSWLDHPFLLNRFRLTDHDQIKVLRSLGVKEIEWDPTRSTAQPLPE | -0.437
54 | HMLVIMKTGASEEEIGRVIERIEGEGLSAHVSRGTERTVIGVIGQGVDVHRIAGVLGGMSGVESLVPIS | 0.0405
55 | HMKQPNFTVIETKILELLFQKDLSSREMQEILKISKDNLIFALQNLLEQEKIVLQTSNTYTVN | -1.15
